Columns and labels:
recombinant human HVEM = biological target: T1, recombinant human HVEM (human, UniProt Q92956 39-202); assay: BLI (Octet-Red96), tagged rhHVEM immobilised on biosensor
T1 construct: Construct limits and tag not specified; also called rhHVEM; TNFRSF14
T1 sequence (looked up): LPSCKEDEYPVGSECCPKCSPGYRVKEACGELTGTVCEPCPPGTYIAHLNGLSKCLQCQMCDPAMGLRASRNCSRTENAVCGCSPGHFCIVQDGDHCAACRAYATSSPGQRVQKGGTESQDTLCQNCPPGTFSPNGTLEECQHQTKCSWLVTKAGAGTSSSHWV
Procedure: (§1) Bio-Layer interferometry-based affinity testing was used to determine the on-rates (Ka), off-rates (Kd) and binding affinities (KD) of the TIGIT-Fc-LIGHT chimeric protein to intended binding targets, using histidine- or biotin-tagged versions of the human recombinant proteins (PVR, HVEM, LTβR, PVRL2, PVRL3, and Nectin-4; purchased from Acro Biosystems or Sino Biological). Commercially available or internally produced single-sided fusion protein controls (TIGIT-Fc and Fc-LIGHT) were also tested in parallel. Targets were immobilized at a concentration of 3 μg/mL in Kinetics buffer (PBS/0.1% Tween-20/1% BSA; pH7.0) to anti-pentaHis or streptavidin coated biosensors. Direct binding of fusion proteins to recombinant target proteins was performed on an Octet-Red96 BLI instrument, using association and dissociation times of 90 and 120 seconds, respectively.
Protein-protein interactions (PPI) between the fusion proteins and their cognate binding partners were characterized using both recombinant protein and cell-based methods. First, bio-layer interferometry-based affinity testing was used to assess the kinetics of receptor/ligand binding.

[1] = biological target: T2, recombinant human CD112 (PVRL2) (human, UniProt Q92692 32-360); assay: BLI (Octet-Red96), tagged rhCD112 (PVRL2) immobilised on biosensor
T2 construct: also called rhCD112 (PVRL2); Nectin-2
T2 sequence (looked up): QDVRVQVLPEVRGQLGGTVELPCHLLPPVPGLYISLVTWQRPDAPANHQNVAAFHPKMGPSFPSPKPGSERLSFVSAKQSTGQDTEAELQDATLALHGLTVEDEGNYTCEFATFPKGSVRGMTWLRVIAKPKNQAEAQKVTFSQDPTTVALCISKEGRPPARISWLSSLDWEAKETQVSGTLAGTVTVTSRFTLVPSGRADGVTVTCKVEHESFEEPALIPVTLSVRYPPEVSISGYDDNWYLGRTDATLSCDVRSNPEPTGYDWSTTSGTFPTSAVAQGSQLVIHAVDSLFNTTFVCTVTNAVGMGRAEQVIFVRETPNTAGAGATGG
Procedure: as §1

[2] = biological target: T3, cell surface human HVEM (CHO-K1/hHVEM cells; Jurkat effector cells; human PBMC) (human, UniProt Q92956 39-283); assay: flow cytometry, CHO-K1 cells stably expressing human HVEM; cell surface HVEM
T3 construct: whole, on cells; also called cell surface HVEM
T3 sequence (looked up): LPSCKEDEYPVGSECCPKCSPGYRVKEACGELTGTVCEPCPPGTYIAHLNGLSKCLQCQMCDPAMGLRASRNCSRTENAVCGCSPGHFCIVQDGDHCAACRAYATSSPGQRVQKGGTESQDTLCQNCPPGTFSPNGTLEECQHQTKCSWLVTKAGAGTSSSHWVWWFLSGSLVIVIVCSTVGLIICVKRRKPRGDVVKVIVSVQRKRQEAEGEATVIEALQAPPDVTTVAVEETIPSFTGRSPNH

B1: human TIGIT-Fc-LIGHT chimeric protein (Fc fusion)
chain: MMTGTIETTGNISAEKGGSIILQCHLSSTTAQVTQVNWEQQDQLLAICNADLGWHISPSFKDRVAPGPGLGLTLQSLTVNDTGEYFCIYHTYPDGTYTGRIFLEVLESSVAEHGARFQIPSKYGPPCPPCPAPEFLGGPSVFLFPPKPKDQLMISRTPEVTCVVVDVSQEDPEVQFNWYVDGVEVHNAKTKPREEQFNSTYRVVSVLTVLHQDWLSGKEYKCKVSSKGLPSSIEKTISNATGQPREPQVYTLPPSQEEMTKNQVSLTCLVKGFYPSDIAVEWESNGQPENNYKTTPPVLDSDGSFFLYSRLTVDKSRWQEGNVFSCSVLHEALHNHYTQKSLSLSLGKIEGRMDLQLHWRLGEMVTRLPDGPAGSWEQLIQERRSHEVNPAAHLTGANSSLTGSGGPLLWETQLGLAFLRGLSYHDGALVVTKAGYYYIYSKVQLGGVGCPLGLASTITHGLYKRTPRYPEELELLVSQQSPCGRATSSSRVWWDSSFLGGVVHLEAGEKVVVRVLDERLVRLRDGTRSYFGAFMV
notes: Said to exist as a hexamer (dimer of trimers); Glycosylated; also called hTIGIT-Fc-LIGHT; TIGIT-Fc(IgG4)-LIGHT
Kd (recombinant human HVEM): 6.49 nM
koff (recombinant human HVEM): 0.000173 s⁻¹
kon (recombinant human HVEM): 26100 M⁻¹ s⁻¹
Kd [1]: 3 nM
koff [1]: 0.000471 s⁻¹
kon [1]: 172000 M⁻¹ s⁻¹
EC50 [2]: 65.8 nM

Reference: patent publication US20240016892A1 (SHATTUCK LABS, published 2024)
